Experimental data: a protein production outcome set (Wang et al. 2014)

Assay: label from the status in PepcDB records

Sequence | protein production
MPTYEELSQAVFEGDEAQVVELTRSLLSGGAEPLEVINKGLIAGMDRVGVLFKNNEMFVPEVLMSANAMNAGVEVVKQSQQAFDMPSVGKIVLGTVKGDLHDIGKNLVAMMLESGGFTVYNLGVDIEPGKFVEAVKKYQPDIVGMSALLTTTMMNMKSTIDALIAAGLRDRVKVIVGGAPLSQDFADEIGADGYAPDAASATELCRQLLE | not failed
MPVCARAAAATGAAGHRSHLPEVTFCLRTIAERLHGGQHRRMNSSFCHLLHPLRLAAAFTIAAVALSFMPDASAHGAWRWGALAGFTALFVLHTVLPQTHALRTVATLLQAVLALLLVWIEPRAGTAPVLLVMLVAQAGMTWPPLRVLLLALALNAGMYAVLVHAGFDRALLIVSIYAGFQAFAALTAHYARSAERARDALAYVNADLLATRALLADSARDAERLRLARELHDVAGHKLTAMRINLRLLSADPALAQRDEVAVVEQLSAELLSDIRNVVQSLRDDQGLDLQTALRALAAPFPRPTLRLQIDADVRVTDARVAELLLRLVQEALTNAVRHADADEVAVHLHCEGAQLHVDICDDGRRAERIREGNGITGMRERLAALHGQLDLGRTPTGGMHLIARLPV | failed
MPVGIIGHYRCGEHNMGEHHPENGKRLTAISDQLIRSGLDYVVRQFDSKPIDKSLLALAHTQEHIDFVFDNAPNEGEENFTVGEDSVMNEKTLTSIMYSAGAAVDAVDLVMEGTLGAAFCATRPPGHHAEHDKGMGFCFFNNVAVAAAYAKQKYGLKRVAIVDFDVHHGNGTEDIITNHFNATPEDDKGYLFCSSYQYPLYPFEIQESDTPPIINTPLAATTKGEQFREKLTAHWLPALHKFKPELILISAGFDAHIEDEMSHVSLTEADYRWITDELKIIAEEYGKGRIVSVLEGGYAPSALGRSVVAHVNGLIGN | failed
MPVKTFVFDQIQKLMGWCPACRKMTLQTEQPCNFINTAQISGKTGNIPEFRTSNIIFPANTTLVFVLFYICISLLLRYPEDISLFLAGLFLLNIFYYFLYLKTLEAAVLVDRFGVHMHAFRLKKFEIPFEEIESMKLCRLEKRSKKMSLLLVIGGIALCGFFVYIAVAEGEWKPLLLLVSIIPLLLLVEMKQKMRFWNLNTQLYIKTRHKKLYEWTPYYSLITDEASAEELKSFIERHL | failed
MPVLVLLLAVGTGCVSTGTNPVSGNTRAYGYSWQEEVTMGQKADKQIQSQYGVYDDEELQEYVDGVAQEVLAESHMRRPDTPERFRNTEFEFRVLDSPIINAFALPGGYVYVTRGLVAHLNNEAQLAMVLGHEIGHVAARHASQQAARQKFTQGLLLSGAVAGQVAFGGNVAENVMGLGGQAAQLLSLSYSRDNERESDRLGVEYAVRAGYDGAEGAAFFESLERVREQGGQSIPTWQSTHPDPGARQQTIPELAQTWRKKVDRPATTIDQDAYYNALEGTVLGKNPRQGFVEEGVFYQPELAFRFSIPSRWDVQNQPQQVALVQPDQSAYMIFTFSDAETPDAAARKFAGQDGLSVLDRQSTSVNGNDARRVLAEGKTQQGQVVRLLTYFIAYGDNVYQFQGTTSADRYDAYRPDFERTMTSFARLTDSEKLNRQPARIAIQAADREGAFRSFVDTDALPSDMTEEDLAIINQLDVDQVVAPDRPLKLPN | failed
MPVMQSRIIHLSVEKPWAEVYDFAANPGNMPRWAAGLAGGLEADGEDWIAKGGPLGEVRVNFAPHNEFGVIDHVVTLPDGLKVYNALRVTPNGSGTEVSFTLLRLEGMTDEDFEQDASAITADLEMLKSLLEAD | not failed
MPVPPEFPLSVFYDGSCSVCATEMEAYMRKEHGGRLLFVDISAPSFDPTPYGITLDAFMYQMHAIDRTGRVYLSVEAFWAIWQAFPASTLYGFLGALVMLPGVNLLARAGYRGFARIRKYLPRRRETCAGGSCRIGQREE | failed
MPVRVIVDSSACLPTHVAEDLDITVINLHVMNNGEERSTSGLSSLELAASYARQLERGGDDGVLALHISKELSSTWSAAVTAAAVFDDDSVRVVDTSSLGMAVGAAAMAAARMAKDGASLQECYDIAVDTLKRSETWIYLHRIDEIWKSGRISTATAMVSTALATRPIMRFNGGRMEIAAKTRTQSKAFAKLVELAQIRADGEPVFIAIGQNEAREAAKQLEELLRNALPEGSSFMSVDIDPTLAVHSGPGAVSVSAVFANQAPELSTGKAGAK | not failed
MPVSNEIWQLLSRLAEDIRPIGVNISAGEPNRLWTEAKWRALLERFPGERFVVLSGPDDLDAKRRLEEQCPNAVASPPTRNLYEASCIVAKLRLLVTPDTSMVHVASATGTPVAGLYREAPQDISRFGPYAIPYEIVISPTGEVSGIKPESVADAVRRLMARAIGREALEHHHHHH | not failed
MPYEMKFKGVYVLAMEDNSSFKGKIEVGDTVTGVDGKSFKSSEELMNYIKAQKVNQKVTVQFIQDGKAKEATGKLIELPTDKKAGIGIGLTDHTLEHHHHHH | not failed
MPYVDRQNRICGFLDIEDNENSGKFLRRYFILDTQANCLLWYMDNPQNLAVGAGAVGSLQLTYISKVSIATPKQKPKTPFCFVINALSQRYFLQANDQKDLKDWVEALNQASK | not failed
MPYVFSFKMPQEQGQMFQYYPVYMVLPWEQPQQTVPRSPQQTRQQQYEEQIPFYAQFGYIPQLAEPAISGGQQQLAFDPQLGTAPEIAVMSTGEEIPYLQKEAINFRHDSAGVFMPSTSPKPSTTNVFTSAVDQTITPELPEEKDKTDSLREP | failed
MQAALEVTARYCGRELEQYGQCVAAKPESWQRDCHYLKMSIAQCTSSHPIIRQIRQACAQPFEAFEECLRQNEAAVGNCAEHMRRFLQCAEQVQPPRSPATVEAQPLPAS | failed
MQADPAIRRFAKKRNKRVDRMILDSNYMHTSIDRYFPNESKRRGRPDIIYLLLEMTQESILNHKNQLRTYVHTRNNQVIRISPITRMPKSYNRFIGLFEDLFEKRIITNNGKELLSMEESSLGDLINSIRRDRTILLHPKGEMRKPSEFISNANILIVIGGFSEGDFISDTSFINERYAIFDQELTIWSVANEMVANYERAVGLTLEHHHHHH | not failed
MQAFFANPAVSWTLLTTGGILLVVIWVLLSLAFLLLADRKIWAGVQMRKGPNVVGPFGLLQSFADFFKFVLKEIVIPAGADKVVFILAPLISLILAFVGWAVVPFAPGWVVSNLNVGILYLLAMSSLGVYGIIMGGWASNSKYPFLGALRSAAQMVSYEVSIGLIIITVILLAGSMNLSTIVEKQSGWIWNWNVFGGGLNNLVLLPVMVVAMGMFYISALAETNRPPFDLPEAESELVAGYQVEYSSTPYLLFMVAEYSNIVLMCAMISVLFFGGWNPGFPTDFLSSWHPFAANLFLALVFYAKICFWFFMFAMAKAIVPRYRYDQLMRLGWKVFLPTSLVLVAAVAAWRVFGPAA | failed
MQAMTERLEAMLAQGTDNMLLRFTLGKTYAEHEQFDAALPHLRAALDFDPTYSVAWKWLGKTLQGQGDRAGARQAWESGLAAAQSRGDQQVVKELQVFLRRLAREDAQHGG | failed
MQAVHGRSRKPADPAYQAGLAEELRQSYGRAGLIELYGRFATGDGVVDSLMRKAIWQAITRRCGEGLQVASGAGFKHPETFEIGDGVFIGAQAYIQGRYDGTCVIGDNVWIGPMAYFDARDLVIEDSVGWGPGAKVLGSTHTALPIDVPIIRTDLEIRPVRICAEADIGTNATILPGVTIGKGAIVGAGAVVVSDVEPFSVAAGVPAKFIRWRSENDPMTNMSREGRS | failed
MQCNVCEFGCEIDEYSRGRCRTYVCTGDTIIQDPDMGYLGAYPVSIETIPLLHYYPSGKFLQVFGTGCNFQCSGCVARLLASGKSLSSTTLTPSQVVEKALQQDCLGVVSTLNEPAANYYLFRDLAVQAKEKGLLVGCSTNCYFTEETLNKLGQLVDFMNVGIKGYSDRSYISCGVPSSAPVFRNISLLFDMGVHVETSVVYSRGNEADVIKVAEAVSDISPTIPVQVMRFIPFGDAPIELEPSVGEAESLCADLRKYVDYVYLFNSPGTELLNTYCPECGSLLAEREFYGPMGSRPVRPWITYSCDCGKTVPVKGTTAVERFNEEGFMGGYRISRAFGMVHGVLTCLGILDDSRLIDVWREISDSGTLMKVHHMIQQPYAYLDFVRLIAERANMPEKGEELISFIHTRLELVKSLAAENSGHKVYYCMGSPLFALNAGRMENNLVAFSGGLSINKQLQKEGKPGINVSPSFINENNPDTIFISGFLSRPLDEFYTLCRQYGIETDAVKQQRVYEVPPSWDFGNPRWILGLMYIADKLYPGNSGIDLEKEADEFYRQFYGMPYLEHHHHHH | not failed
MQDELVILSSIASIMVAIIVLILFYIEKIRTYVGVFFVYFSLTMMIAMFVGASIYLLYPSRVSLAIAFGINTFIMIPLIAYFLLKIAKLANTPFRGERTHVVIFSILLVLNEILMGTTFGIAQFGFSRFSNLYYSLYFSINSYWFFYPMMAEMLALYLLHYLKGSINRELFPLIGLATFPPTAFDYQEWFYSALIFSLAFSILGSILSKRLWRYVYLMLILSELILLINAIPYDIAIAISMILYYYQSLLPLRR | failed
MQDFRFVAAAIVFIFTLILVTVRPWKIDIGYGALIGAFVSIILGISTPADVIKVWNIIWNPTFTFVAIIAMSLVLDYAGFFEYYAIRISKFAGGNGIKLFVFIVILGSLTAAFFANDGAVLVLTPIVLSIMDMTGIGKKGAVAYIMAIGFISDSSSLPFVISNLVNIIGSGYFGISFASYAKVMVIPDIISVVSSLGLLLLYYRKDIPRIYQVESLPNPKNVIKDPLIFKLAFPFMAIVVLAYFLTSFDLVPVSFVAVPAATILIVVARYNHRINTRSIIAEAPWQVVVFSLGMYIVVYGFGDNGLTSVLVHVTKSILLLGNPLSTVLAGLLFGAMAGSMNNLPSVMMGALTISHLNQNSFLIYANVIGNDIGPKFTPIGSLATLLWIYTLQRKHGVQITPIYYMKVGFIIAFPVLVLTLLSLYATIYFGL | failed
MQDGFLTVSIIDATNNRPIQNAVVNIYSMSNGSQSSSTLYQNLRSNESGQVTGLVLPAPDVDYSLQPSDVRPYSQYIVEAIADGYETVVIEGTQLLATIEARQGVPMSPRTRSKRSFSRQSELIFDIGEHTLYGTYPPKIPESNLKPLPPPTGFVVLDNPVVPEFIVVHDGLPEDSSAPNYWIPFKEYIKNIASSEIYSTWPEQTIYANVIAIISFTLNRVFTEWYRNKGYNFTITSTTAYDHKFINNRNLFEPINVVVDAIFNTFIKRPPTSRQPLLAQYCDGQKSQCPDQMTQWGSKDLGDQGYDYESILRYFYGDEIVFERAPIVSGVPVSFPGTTLQVGSSGQYVRTIQNQLNAISNSYPAVPKVIEDGIYGTDTENAVKIFQGIFGLPQSGVVDFKTWYEISRVYVATTRIASLNPLILEHHHHHH | not failed
MQDKNFDKLAQKFAKNIYGTPKGEIRAAVLWRDLAPALAQFGDKKLRILDAGGGFGYFSQKLARLGHEVVLCDISAEMLAQAKEQIDASDTPLAIRLVHAPIQALSITEHGMFDLILCHAVVEWLADAKTTMEGLLTMLKPNGLFSLMFYNKEAMRFHALVSGNFDYVAADLKVKKKVRLTPTHPLYIHEVKLWFAQWQMALLKESGVRVIHDYLKKQQAADFDYQKLLSMELEYSQREPYISLGRYVHFLGQSTATHSELEHHHHHH | not failed
MQDNNARFPTIAKVLILRQFLWGAAFYGAFVLLTKFFLDDLNYSEADTIMMMGAFGAVGPVFSAVGGFLADKFIGAFRAVYIGYATYLAGFLLLGIGASQLNVPMSILAIALIGFARGLSATCPTVLFGNSYSETNREAFQQGLTVNYSINNLGSFSAKYLFPFLIAYLAYQGVFFVSAILMALNLLMFYKFRKELVSVGNDLDKTPLPLKTWVMFFAGSAAMLGLIFWIFSNLETGKYILYTLGFGAIGYFIYEITQATRAYQYKMVAVLITVCILIVFYFFYGQMFTSMNMYAINLMDDTLLGFIPIHPESNMAFNPLWCFVLGGPMIQLYAWLDRKGYSPTIPTKIAGAFMLSTIAFGLLGLSAGSIGENGKISADWILLVHFFQSGAELIVGALGAGFIFEMVPRYLAAFSIGLRAVAISLSGILAAVIATKIALPKDIVFTPEVVETVYTSYFYMLAQVAAFMAILTLGLSKVIQKLIARGEALEAEEKVDTTMRSNIG | failed
